First the molecules themselves.
B1: Gamma-aminobutyric acid receptor-associated protein (Homo sapiens), O95166 (parent)
chain: MKFVYKEEHPFEKRRSEGEKIRKKYPDRVPVIVEKAPKARIGDLDKKKYLVPSDLTVGQFYFLIRKRIHLRAEDALFFFVNNVIPPTSATMGQLYQEHHEEDFFLYIAYSDESVYGL
partner: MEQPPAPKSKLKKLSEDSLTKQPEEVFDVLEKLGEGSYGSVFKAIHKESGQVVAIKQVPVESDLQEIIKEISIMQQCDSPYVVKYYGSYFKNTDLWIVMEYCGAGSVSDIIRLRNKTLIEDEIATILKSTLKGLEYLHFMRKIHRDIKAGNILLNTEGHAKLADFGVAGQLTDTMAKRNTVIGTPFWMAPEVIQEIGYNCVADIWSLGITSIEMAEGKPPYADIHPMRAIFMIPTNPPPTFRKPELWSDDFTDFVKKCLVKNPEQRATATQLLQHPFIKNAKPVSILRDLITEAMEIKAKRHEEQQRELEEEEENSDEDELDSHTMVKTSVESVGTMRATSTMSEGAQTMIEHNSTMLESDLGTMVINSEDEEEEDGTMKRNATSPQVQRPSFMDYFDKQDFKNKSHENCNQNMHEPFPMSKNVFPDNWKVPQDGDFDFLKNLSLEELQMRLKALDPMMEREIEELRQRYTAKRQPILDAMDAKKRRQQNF
B2: Gamma-aminobutyric acid receptor-associated protein (Homo sapiens), O95166 (parent)
chain: B1 chain
partner: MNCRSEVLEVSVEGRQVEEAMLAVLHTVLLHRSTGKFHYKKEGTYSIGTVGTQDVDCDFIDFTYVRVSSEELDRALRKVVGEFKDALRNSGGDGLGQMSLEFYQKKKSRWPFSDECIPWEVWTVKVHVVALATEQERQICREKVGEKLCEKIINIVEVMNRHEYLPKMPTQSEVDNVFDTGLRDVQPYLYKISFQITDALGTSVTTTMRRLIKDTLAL
B3: Gamma-aminobutyric acid receptor-associated protein (Homo sapiens), O95166 (parent)
chain: B1 chain
partner: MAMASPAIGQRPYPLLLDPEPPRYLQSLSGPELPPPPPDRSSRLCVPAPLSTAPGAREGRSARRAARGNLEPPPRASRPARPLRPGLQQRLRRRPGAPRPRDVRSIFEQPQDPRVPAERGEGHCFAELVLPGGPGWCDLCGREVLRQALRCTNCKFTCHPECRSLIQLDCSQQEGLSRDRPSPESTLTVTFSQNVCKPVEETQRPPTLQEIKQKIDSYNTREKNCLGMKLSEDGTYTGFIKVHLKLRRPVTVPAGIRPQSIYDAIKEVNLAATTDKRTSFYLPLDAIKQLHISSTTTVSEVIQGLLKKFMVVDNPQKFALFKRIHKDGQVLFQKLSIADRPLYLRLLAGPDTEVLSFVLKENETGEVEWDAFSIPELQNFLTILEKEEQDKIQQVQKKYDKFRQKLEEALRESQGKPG
B4: Gamma-aminobutyric acid receptor-associated protein (Homo sapiens), O95166 (parent)
chain: B1 chain
partner: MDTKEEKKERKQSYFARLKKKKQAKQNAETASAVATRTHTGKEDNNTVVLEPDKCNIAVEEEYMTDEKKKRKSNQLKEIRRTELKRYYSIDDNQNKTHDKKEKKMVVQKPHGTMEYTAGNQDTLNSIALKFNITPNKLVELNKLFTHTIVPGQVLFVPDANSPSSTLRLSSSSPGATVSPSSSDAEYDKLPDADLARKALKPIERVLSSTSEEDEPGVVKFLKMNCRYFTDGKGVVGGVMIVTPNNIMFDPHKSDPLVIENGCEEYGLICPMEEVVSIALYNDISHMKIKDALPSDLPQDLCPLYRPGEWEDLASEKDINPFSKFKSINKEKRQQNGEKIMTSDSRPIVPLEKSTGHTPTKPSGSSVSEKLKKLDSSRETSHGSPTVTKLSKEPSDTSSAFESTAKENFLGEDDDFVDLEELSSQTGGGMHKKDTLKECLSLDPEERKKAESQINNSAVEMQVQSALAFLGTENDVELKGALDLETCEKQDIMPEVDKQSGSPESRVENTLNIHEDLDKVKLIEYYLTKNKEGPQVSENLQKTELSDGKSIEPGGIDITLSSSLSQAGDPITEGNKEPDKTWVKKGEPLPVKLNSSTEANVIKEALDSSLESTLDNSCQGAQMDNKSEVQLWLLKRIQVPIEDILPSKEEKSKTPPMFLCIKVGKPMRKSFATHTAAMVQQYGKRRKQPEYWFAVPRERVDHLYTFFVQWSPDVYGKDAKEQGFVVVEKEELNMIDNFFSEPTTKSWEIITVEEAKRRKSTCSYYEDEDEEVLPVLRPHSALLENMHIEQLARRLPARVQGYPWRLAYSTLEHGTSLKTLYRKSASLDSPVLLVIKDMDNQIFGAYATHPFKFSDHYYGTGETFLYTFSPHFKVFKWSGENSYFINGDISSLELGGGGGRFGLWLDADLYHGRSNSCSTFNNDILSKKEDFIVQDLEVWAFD
B5: Gamma-aminobutyric acid receptor-associated protein (Homo sapiens), O95166 (parent)
chain: B1 chain
partner: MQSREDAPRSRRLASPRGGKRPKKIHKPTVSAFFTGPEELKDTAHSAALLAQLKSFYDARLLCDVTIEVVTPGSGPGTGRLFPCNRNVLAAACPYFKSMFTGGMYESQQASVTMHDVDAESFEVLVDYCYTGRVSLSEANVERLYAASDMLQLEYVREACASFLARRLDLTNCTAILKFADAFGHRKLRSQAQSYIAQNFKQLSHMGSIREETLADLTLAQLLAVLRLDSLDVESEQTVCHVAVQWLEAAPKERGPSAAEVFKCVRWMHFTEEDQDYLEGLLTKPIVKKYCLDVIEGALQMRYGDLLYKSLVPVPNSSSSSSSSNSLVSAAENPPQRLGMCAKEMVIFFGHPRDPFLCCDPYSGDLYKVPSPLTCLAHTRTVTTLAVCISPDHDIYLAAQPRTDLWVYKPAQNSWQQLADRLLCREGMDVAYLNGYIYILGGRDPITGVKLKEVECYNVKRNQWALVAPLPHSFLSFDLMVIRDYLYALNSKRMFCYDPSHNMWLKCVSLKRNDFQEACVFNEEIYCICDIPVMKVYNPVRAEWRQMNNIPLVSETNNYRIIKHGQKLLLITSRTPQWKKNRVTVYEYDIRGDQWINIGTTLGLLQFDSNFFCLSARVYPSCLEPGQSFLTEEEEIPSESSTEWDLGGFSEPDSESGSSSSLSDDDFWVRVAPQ
B6: Gamma-aminobutyric acid receptor-associated protein (Homo sapiens), O95166 (parent)
chain: B1 chain
B7: Gamma-aminobutyric acid receptor-associated protein (Homo sapiens), O95166 (parent)
chain: B1 chain
partner: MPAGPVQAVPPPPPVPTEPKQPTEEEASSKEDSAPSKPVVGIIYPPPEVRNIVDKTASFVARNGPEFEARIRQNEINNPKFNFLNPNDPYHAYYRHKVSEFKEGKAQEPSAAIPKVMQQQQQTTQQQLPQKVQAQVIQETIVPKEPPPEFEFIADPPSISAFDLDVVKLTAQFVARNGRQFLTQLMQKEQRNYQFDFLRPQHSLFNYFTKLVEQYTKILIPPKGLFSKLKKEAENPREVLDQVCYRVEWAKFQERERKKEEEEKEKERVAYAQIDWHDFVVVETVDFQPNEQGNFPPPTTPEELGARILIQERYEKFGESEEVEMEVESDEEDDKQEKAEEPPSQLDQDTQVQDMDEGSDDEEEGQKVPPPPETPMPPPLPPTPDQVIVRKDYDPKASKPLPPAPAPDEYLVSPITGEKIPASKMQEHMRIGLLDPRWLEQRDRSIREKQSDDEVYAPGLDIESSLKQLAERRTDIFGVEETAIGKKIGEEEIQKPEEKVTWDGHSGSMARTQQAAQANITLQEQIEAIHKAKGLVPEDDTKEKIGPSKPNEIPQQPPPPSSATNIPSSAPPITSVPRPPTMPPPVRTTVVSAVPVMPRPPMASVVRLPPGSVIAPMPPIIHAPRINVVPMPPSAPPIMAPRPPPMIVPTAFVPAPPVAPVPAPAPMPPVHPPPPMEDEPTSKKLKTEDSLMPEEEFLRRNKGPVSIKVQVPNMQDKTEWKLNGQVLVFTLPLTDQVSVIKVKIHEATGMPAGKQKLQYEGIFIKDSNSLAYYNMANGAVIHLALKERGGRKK
B8: Gamma-aminobutyric acid receptor-associated protein (Homo sapiens), O95166 (parent)
chain: B1 chain
partner: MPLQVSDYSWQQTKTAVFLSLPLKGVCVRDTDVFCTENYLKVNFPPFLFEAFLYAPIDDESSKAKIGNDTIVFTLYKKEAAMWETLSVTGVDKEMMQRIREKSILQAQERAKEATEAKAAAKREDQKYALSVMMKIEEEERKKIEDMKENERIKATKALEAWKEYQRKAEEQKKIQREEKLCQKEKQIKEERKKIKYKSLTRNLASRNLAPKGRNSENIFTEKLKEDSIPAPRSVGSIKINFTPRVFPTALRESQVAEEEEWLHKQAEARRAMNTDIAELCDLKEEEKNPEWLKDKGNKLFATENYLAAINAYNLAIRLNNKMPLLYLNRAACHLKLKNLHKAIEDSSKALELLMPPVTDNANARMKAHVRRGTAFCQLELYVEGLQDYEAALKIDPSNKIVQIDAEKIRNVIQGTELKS
B9: Gamma-aminobutyric acid receptor-associated protein (Homo sapiens), O95166 (parent)
chain: B1 chain
partner: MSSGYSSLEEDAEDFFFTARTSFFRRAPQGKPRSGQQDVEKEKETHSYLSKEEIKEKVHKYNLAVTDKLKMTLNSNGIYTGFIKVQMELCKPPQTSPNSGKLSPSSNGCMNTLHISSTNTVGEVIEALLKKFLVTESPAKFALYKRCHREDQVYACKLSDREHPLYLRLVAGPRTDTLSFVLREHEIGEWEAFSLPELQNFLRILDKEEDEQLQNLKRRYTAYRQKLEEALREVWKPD

The first test covers variants of B1. Particulars: with stk3_human STK3, Q13188.
Y49A;L50A: the “effect of a mutation on the interaction” value is “decreasing interaction”.

The variants in a further test derive from B2. Particulars: with atga1_human ATG101, Q9BSB4.
Turning to Y49A;L50A, the “effect of a mutation on the interaction” value was “increasing interaction”.
For the variant R71A, the “effect of a mutation on the interaction” value was “increasing interaction”.

Variants of B3 are the subject of a further test. To be noted: with rasf5_human RASSF5, Q8WWW0.
Regarding Y49A;L50A, the “effect of a mutation on the interaction” value is on record as “increasing interaction”.

Variants of B4 are the subject of the next test. To be noted: with ncoa7_human NCOA7, Q8NI08.
Take Y49A;L50A: the “effect of a mutation on the interaction” value is given as “decreasing interaction”.

Variants of B5 are the subject of another test. Particulars: with kbtb6_human KBTBD6, Q86V97.
For the variant Y49A;L50A, the “effect of a mutation on the interaction” value was “decreasing interaction”.

Variants of B6 are the subject of the next test. Particulars: with atg2a_human ATG2A.
On to Y49A;L50A, for which the “effect of a mutation on the interaction” value is given as “decreasing interaction”.

Variants of B6 are the subject of the next test. Particulars: with atg3_human ATG3, Q9NT62.
Sequence of atg3_human ATG3, Q9NT62 (Q9NT62 whole entry): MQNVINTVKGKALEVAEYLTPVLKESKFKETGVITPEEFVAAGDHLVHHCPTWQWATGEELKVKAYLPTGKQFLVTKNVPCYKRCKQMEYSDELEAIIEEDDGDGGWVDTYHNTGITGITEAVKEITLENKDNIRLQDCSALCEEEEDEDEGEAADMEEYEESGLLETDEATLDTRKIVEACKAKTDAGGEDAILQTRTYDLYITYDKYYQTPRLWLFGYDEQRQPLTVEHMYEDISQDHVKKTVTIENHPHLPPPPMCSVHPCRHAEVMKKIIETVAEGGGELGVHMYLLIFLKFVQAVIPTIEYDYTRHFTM
As to Y49A;L50A, the “effect of a mutation on the interaction” value is on record as “disrupting interaction”.

In another test the parent is B6. To be noted: with echa_human HADHA.
For Y49A;L50A, the “effect of a mutation on the interaction” value is reported as “decreasing interaction”.

In another test the parent is B6. To be noted: with nedd4_human NEDD4, P46934.
Sequence of nedd4_human NEDD4, P46934 (P46934 whole entry): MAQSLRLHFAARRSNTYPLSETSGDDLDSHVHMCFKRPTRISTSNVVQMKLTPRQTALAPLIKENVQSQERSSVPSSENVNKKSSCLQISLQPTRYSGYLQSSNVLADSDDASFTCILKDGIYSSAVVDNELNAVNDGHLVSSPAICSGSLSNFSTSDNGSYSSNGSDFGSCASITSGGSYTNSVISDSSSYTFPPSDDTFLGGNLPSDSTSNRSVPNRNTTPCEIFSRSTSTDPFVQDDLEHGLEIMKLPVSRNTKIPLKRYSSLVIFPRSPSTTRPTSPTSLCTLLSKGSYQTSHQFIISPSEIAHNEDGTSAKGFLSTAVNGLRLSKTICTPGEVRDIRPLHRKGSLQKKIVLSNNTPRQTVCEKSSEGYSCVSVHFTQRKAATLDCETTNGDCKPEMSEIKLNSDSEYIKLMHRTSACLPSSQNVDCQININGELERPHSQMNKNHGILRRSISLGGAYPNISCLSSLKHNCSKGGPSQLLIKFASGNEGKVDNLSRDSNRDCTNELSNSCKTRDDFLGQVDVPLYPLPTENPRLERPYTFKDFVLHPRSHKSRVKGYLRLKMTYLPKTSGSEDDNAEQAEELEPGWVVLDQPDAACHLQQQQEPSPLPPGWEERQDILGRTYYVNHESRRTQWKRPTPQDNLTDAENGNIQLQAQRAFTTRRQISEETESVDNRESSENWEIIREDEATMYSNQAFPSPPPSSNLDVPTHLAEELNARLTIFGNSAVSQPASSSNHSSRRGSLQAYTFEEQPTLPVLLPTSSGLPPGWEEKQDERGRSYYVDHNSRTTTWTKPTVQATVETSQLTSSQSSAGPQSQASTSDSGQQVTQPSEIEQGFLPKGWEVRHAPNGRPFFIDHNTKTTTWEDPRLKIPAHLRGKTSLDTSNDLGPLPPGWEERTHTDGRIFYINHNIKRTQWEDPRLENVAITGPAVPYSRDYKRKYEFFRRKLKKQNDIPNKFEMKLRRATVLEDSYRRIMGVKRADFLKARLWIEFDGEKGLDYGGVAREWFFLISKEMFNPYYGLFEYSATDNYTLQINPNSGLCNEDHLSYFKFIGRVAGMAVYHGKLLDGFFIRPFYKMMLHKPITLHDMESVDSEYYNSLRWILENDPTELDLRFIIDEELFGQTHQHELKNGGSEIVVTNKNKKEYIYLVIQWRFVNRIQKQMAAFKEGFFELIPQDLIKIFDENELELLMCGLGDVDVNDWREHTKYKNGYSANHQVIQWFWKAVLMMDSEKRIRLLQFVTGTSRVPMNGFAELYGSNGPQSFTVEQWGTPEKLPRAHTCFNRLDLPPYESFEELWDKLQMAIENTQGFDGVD
As for Y49A;L50A, the “effect of a mutation on the interaction” value was “disrupting interaction”.

Variants of B7 are the subject of a further test. Particulars: with sf3a1_human SF3A1, Q15459.
Turning to Y49A;L50A, the “effect of a mutation on the interaction” value is recorded as “decreasing interaction”.

In the next test the parent is B8. Particulars: with daaf4_human DNAAF4, Q8WXU2.
As to Y49A;L50A, the “effect of a mutation on the interaction” value was “decreasing interaction”.

Variants of B9 are the subject of a further test. Particulars: with rasf3_human RASSF3, Q86WH2.
With Y49A;L50A, the “effect of a mutation on the interaction” value is recorded as “decreasing interaction”.

Source of the values: IntAct's records for PubMed 20562859.
